According to patent publication US20190092872A1 (Hoffmann-La Roche, published 2019):

How the values were obtained:
FcγRI [1] = target: T1, FcγRI (UniProt P12314 16-288, limits assumed); assay: SPR steady state affinity; reference is the IgG1 Wt affinity for FcγRI
T1 construct: Captured from a 100 nM solution on immobilized anti-His antibody; also called FcγRI receptor; FcγRIa
Method: (§1) Biacore T100 system (GE Healthcare) with high immobilized anti-His capturing antibody (GE Healthcare). Immobilization of the anti-His capturing antibody was performed on a CMS chip using the standard amine coupling kit (GE Healthcare) at pH 4.5 10 mM sodium acetate and 10 μg/ml anti-His solution. The immobilization level of anti-His reached more than 10.000 RU. FcγRI was applied in a 100 nM solution, in the running buffer HBS-P+ and captured with a pulse of 60 sec at a flow rate of 30 μl per min. […] The dissociation phase was monitored for 180 sec. The surface was regenerated by a 60 sec washing step with a 10 mM Glycine pH 1.5 at a flow rate of 30 μl per min. The stabilization period took 60 sec. The Biacore T100 evaluation software was used for data analysis.
(§2) For the steady state affinity concentration determination the response values from the end of association were used to plot the response against the concentration. The Biacore T100 evaluation software was used to calculate the affinity of samples for immobilized FcγRI receptor from the plot.

FcγRI [2] = target: T1, FcγRI; assay: SPR steady state affinity (Biacore T100), FcγRI captured via anti-His antibody, antibody 1000-62.5 nM
Method: as §1, §2

FcγRIIIA = target: T2, FcγRIIIA (UniProt P08637 17-208, limits assumed); assay: SPR (Biacore T100), FcγRIIIA with His tag captured on immobilised anti-His antibody, antibody injected (Example 9)
T2 construct: Captured from a 200 nM solution on immobilized anti-His antibody; also called CD16
Method: The SPR interaction analysis of captured FcγRIIIA and IgG1 Fc variants was performed on a Biacore T100 system (GE Healthcare) with high immobilized anti-His capturing antibody (GE Healthcare). Immobilization of the anti-His capturing antibody was performed on a CMS chip using the standard amine coupling kit (GE Healthcare) at pH 4.5 10 mM sodium acetate and 10 μg/ml anti-His solution. The immobilization level of anti-His reached more than 10.000 RU. FcγRIIIA was applied in a 200 nM solution, in the running buffer HBS-P+ and captured with a pulse of 60 sec at a flow rate of 30 μl per min. […] The dissociation phase was monitored for 180 sec. The surface was regenerated by a 60 sec washing step with a 10 mM Glycine pH 1.5 at a flow rate of 30 μl per min. The stabilization period took 60 sec. The Biacore T100 evaluation software was used for data analysis.

FcγRI [3] = target: T1, FcγRI; assay: SPR steady state affinity fit, FcγRI captured on anti-His antibody; beside it offset (RU) 26.88 and Chi² (RU²) 7.76
Method: as §1, §2

T1 sequence (P12314 16-288 limits assumed): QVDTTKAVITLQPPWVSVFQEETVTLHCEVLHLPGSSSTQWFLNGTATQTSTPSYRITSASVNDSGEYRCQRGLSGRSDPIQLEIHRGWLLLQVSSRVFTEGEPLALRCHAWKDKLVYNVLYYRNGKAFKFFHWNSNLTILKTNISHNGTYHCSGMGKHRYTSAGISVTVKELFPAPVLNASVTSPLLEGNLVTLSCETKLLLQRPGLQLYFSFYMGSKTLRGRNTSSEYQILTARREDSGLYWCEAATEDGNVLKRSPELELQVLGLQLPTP
T2 sequence (P08637 17-208 limits assumed): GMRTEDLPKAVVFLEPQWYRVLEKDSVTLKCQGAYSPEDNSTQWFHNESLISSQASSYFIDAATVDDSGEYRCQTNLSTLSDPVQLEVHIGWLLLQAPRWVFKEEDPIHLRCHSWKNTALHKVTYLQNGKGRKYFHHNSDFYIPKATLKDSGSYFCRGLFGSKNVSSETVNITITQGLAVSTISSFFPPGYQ

- fold below the IgG1 Wt affinity (FcγRI [1]): ~50 fold
- Kd (FcγRI [2]): 234 nM
- binding result (FcγRIIIA): no binding (tested: 1000 nM)
- Kd (FcγRI [3]): 234 nM
B1: obinutuzumab N297D (antibody)
heavy: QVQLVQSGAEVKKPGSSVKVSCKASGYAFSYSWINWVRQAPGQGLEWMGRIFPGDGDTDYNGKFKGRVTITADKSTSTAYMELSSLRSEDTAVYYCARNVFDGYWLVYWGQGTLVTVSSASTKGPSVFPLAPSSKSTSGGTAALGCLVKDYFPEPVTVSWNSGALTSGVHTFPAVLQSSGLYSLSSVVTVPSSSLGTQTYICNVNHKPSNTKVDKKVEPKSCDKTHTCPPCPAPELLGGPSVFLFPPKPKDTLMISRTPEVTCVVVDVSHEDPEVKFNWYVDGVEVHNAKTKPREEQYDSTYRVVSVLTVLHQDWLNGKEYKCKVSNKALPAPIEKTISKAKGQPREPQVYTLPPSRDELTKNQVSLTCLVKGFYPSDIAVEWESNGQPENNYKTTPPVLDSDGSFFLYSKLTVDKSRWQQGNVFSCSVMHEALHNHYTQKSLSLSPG
VL: DIVMTQTPLSLPVTPGEPASISCRSSKSLLHSNGITYLYWYLQKPGQSPQLLIYQMSNLVSGVPDRFSGSGSGTDFTLKISRVEAEDVGVYYCAQNLELPYTFGGGTKVEIK
modifications: N297D removes the Fc N-glycosylation site, so the antibody is aglycosylated ('aglyco').
notes: IgG1 expressed in HEK-EBNA or HEK293 and purified by protein A and size exclusion chromatography; also called GA101 N297D; GA101 aglyco (N297D)
